Measurements from publication PMC2887978.

Biological target: MBD2b (UniProt Q9UBB5 150-411)
Test: EMSA

Sequence of MBD2b (Q9UBB5 150-411): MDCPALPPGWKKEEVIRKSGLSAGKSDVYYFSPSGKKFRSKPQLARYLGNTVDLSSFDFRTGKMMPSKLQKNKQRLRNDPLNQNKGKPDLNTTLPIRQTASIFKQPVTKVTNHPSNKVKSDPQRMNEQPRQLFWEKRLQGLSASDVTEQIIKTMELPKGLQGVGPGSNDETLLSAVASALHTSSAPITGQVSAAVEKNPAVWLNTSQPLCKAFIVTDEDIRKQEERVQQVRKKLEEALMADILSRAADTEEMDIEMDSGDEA

B1: C76 (dsDNA)
DNA 1: CCTCACCATCTCAACCAATATTATATTACGCGTATATCGCGTATTTCGCGTTATAATATTGAGGGAGAAGTGGTGA
DNA 2: TCACCACTTCTCCCTCAATATTATAACGCGAAATACGCGATATACGCGTAATATAATATTGGTTGAGATGGTGAGG
B1: no binding.
